From publication PMC13411919

Biological target: trimeric BG505.SOSIP.664 T332N-avi-biotinylated protein (HIV-1 (BG505, clade A))
Test: native gel or EMSA; BN-PAGE (NuPAGE 4-12% BisTris) of the SEC trimer peak, before and after biotinylation

Question: How did the stoichiometry N turn out when “trimeric BG505.SOSIP.664 T332N-avi-biotinylated protein (domain or fragment)” was run?
Answer: 3
